Laboratory results reported in publication PMC5902510.

Biological target: GST-SpyCatcher fusion protein, immobilised on nanoparticles (Streptococcus pyogenes)
Assay: dynamic light scattering; GST-SpyCatcher held on 40 nm citrate-capped gold nanoparticles; excess of the second protein, 3 h incubation; increase of Z-average diameter (Δd); 20 °C; 10 mM HEPES pH 7.3, 10 mM NaCl

NEM-GST-SpyTag
increase of particle diameter (Δd): 3 nm
